From patent US20250326814A1, “MODIFIED OXYNTOMODULIN AND METHODS OF USE THEREOF” (OPKO BIOLOGICS LTD., priority 2024, published 2025)

Tests used:
[1] = biological target: glucagon-like peptide-1 receptor (GLP-1R); experiment: cell-based or functional assay
glucagon receptor (GCGR) = experiment: cell-based or functional assay

| % EC50 compare to KPI (GLP1), with HSA added (KPI + HSA) [1] | EC50 (nM) GLP-1R, GLP-1 activity in vitro [1] | EC50 (nM), GLP-1 activity [1] | EC50 [nM] GLP1, CBA potency assay [1] | EC50 [nM] GLP1, CBA potency assay, with HSA added (KPI + HSA) [1] | EC50 [nM] GLP1, CBA potency assay, without HSA [1] | % EC50 compare to KPI (GCGR), with HSA added (KPI + HSA) (glucagon receptor (GCGR)) | EC50 (nM) GCGR, glucagon activity in vitro (glucagon receptor (GCGR)) | EC50 [nM] GCGR, CBA potency assay (glucagon receptor (GCGR)) | EC50 [nM] GCGR, CBA potency assay, with HSA added (KPI + HSA) (glucagon receptor (GCGR)) | EC50 [nM] GCGR, CBA potency assay, without HSA (glucagon receptor (GCGR)) | Substance |
| --- | --- | --- | --- | --- | --- | --- | --- | --- | --- | --- | --- |
| 107% | 0.0168 nM | 0.105 nM | 0.127 nM | 0.187 nM | 0.201 nM | 129% | 0.0731 nM | 0.6 nM | 1.06 nM | 1.37 nM | OPK-88003 KPI (SEQ ID NO: 3 where Xaa38=Cys and Xaa39=Cys) (peptide) |
| – | – | 0.9 nM | – | – | – | – | – | – | – | – | Tirzepatide (Mounjaro, Zepbound) (peptide) |
